Source: PMC7335187, “Super-assembly of ER-phagy receptor Atg40 induces local ER remodeling at contacts with forming autophagosomal membranes” (Nature Communications, 2020)

What was measured:
[1] = molecular target: T1, LC3A WT (UniProt Q9H492 1-121); test: ITC; peptide in the syringe (0.5 mM) titrated into 200 µl of the Atg8 homologue in the cell at a 10 times lower concentration; MicroCal iTC200, 25 °C, stirring at 1000 rpm; single-site binding model; N fixed to 1.0 when the fitting was not convergent due to weak interaction; errors are fitting errors; conditions: both partners purified
[2] = molecular target: T2, LC3B WT (rat LC3B 1-120) (rat, UniProt Q62625 1-120); test: as above; conditions: both partners purified
[3] = molecular target: T3, GABARAP WT (human GABARAP 1-116) (human, UniProt O95166 1-116); test: as above; conditions: both partners purified
[4] = molecular target: T4, GABARAPL1 WT (UniProt Q9H0R8 1-117); test: as above; conditions: both partners purified
[5] = molecular target: T5, GABARAPL2 WT (UniProt P60520 1-117); test: as above; conditions: both partners purified
[6] = molecular target: T1, LC3A WT; test: as above; conditions: both partners purified; remark: listed apart in the source
[7] = molecular target: LC3C WT (UniProt Q9BXW4 1-126); test: as above; conditions: both partners purified
[8] = molecular target: T4, GABARAPL1 WT; test: as above; conditions: both partners purified; remark: listed apart in the source
[9] = molecular target: T5, GABARAPL2 WT; test: as above; conditions: both partners purified; remark: listed apart in the source
[10] = molecular target: T2, LC3B WT (rat LC3B 1-120); test: as above; conditions: both partners purified; remark: listed apart in the source
[11] = molecular target: T3, GABARAP WT (human GABARAP 1-116); test: as above; conditions: both partners purified; remark: listed apart in the source
[12] = molecular target: T6, Atg8 K26P (in the crystallised Atg40^237–252-Atg8 fusion) (S. cerevisiae, UniProt P38182 1-116, K26P); test: crystal structure; the AIM sequence fused to the N terminus of Atg8 K26P or GABARAP F3S V4T on one chain; sitting-drop vapor diffusion at 20 °C; molecular replacement; conditions: both partners purified
T6 construct: Atg8, S. cerevisiae (ScAtg8), residues 1-116; K26P introduced for stabilizing Atg8; the GST of the fusion stood before m15 and was cleaved; source: E. coli BL21 (DE3), purified (GST-accept resin, HRV 3C protease, SEC), on one chain with m15
T6 sequence (looked up): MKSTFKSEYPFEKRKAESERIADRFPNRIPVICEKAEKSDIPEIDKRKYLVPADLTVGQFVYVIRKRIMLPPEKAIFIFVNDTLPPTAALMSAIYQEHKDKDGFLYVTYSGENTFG

[13] = molecular target: the molecule itself; test: co-IP; two-step: anti-FLAG beads, elution with 3 x FLAG peptide, then GFP nanobody-conjugated beads, blot for Atg40-HA; wild-type cells; larger oligomers significantly decreased in atg1Δ, atg2Δ and atg8Δ cells
[14] = molecular target: the molecule itself; test: SEC-MALS; Atg40-6His solubilized in DDM; Superdex 200 increase 10/300 in 20 mM Tris-HCl pH 8.0, 150 mM NaCl, 0.03% DDM, room temperature
[15] = molecular target: T7, Atg8 (1-116) K26P (S. cerevisiae, UniProt P38182 1-116, K26P); test: ITC; MicroCal iTC200, 25 °C; peptide in the syringe (FAM134B, SEC62, RTN3 0.5 mM; Atg40^234–252 2.0 mM; Atg40^237–252 1.8 mM), Atg8-family protein in the cell at 10 times lower concentration (1.8 mM Atg8 for Atg40^237–252 D243A D247A); 20 mM HEPES pH 6.8, 150 mM NaCl; single-site model; errors are fitting errors; conditions: both partners purified
T7 sequence (looked up): T6 sequence (looked up)

Sequence of LC3C WT (Q9BXW4 1-126): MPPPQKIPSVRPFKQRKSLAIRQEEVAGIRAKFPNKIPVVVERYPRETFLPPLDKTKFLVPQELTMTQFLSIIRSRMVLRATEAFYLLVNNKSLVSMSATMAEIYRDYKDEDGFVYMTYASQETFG
T3 sequence (O95166 1-116): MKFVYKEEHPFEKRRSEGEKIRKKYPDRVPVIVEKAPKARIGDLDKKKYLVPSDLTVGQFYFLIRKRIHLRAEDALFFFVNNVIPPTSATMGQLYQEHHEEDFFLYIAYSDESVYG
T4 sequence (Q9H0R8 whole entry): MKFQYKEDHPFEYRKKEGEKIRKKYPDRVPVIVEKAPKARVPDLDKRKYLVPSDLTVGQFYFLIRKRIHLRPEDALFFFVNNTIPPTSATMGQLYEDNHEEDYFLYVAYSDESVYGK
T5 sequence (P60520 whole entry): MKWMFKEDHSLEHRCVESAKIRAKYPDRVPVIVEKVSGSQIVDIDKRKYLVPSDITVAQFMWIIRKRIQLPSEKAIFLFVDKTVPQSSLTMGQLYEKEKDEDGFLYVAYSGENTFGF

B1: RTN3245-264 peptide (peptide)
peptide: ESPFEVIIDKAAFDKEFKDSY
notes: numbers count on: isoform e; Tyr attached to the C terminus for quantification by absorbance at 280 nm; source: synthetic peptide
B1 was tested, and the Kd [1] was 17.2 µM, the “stoichiometry N” value [1] was 0.55 site and the Kd [2] was 28.8 µM. The Kd [3] was 5.03 µM, the “stoichiometry N” value [3] was 0.74 site and the Kd [4] was 5 µM. For the same binder, the “stoichiometry N” value [4] was 0.81 site, the Kd [5] was 17.4 µM and the “stoichiometry N” value [5] was 0.51 site.

B2: SEC62355-376 WT peptide (peptide)
peptide: GPHSSGNGNDFEMITKEELEQQTDY
For B2, the Kd [6] was 0.92 µM, the “stoichiometry N” value [6] was 0.78 site and the Kd [7] was 5.18 µM. For the same binder, the “stoichiometry N” value [7] was 0.46 site, the Kd [8] was 0.39 µM and the “stoichiometry N” value [8] was 0.83 site. For the same binder, the Kd [9] was 0.58 µM, the “stoichiometry N” value [9] was 0.78 site and the Kd [10] was 3.37 µM. For the same binder, the “stoichiometry N” value [10] was 0.74 site.

B3: SEC62355-376 I366A peptide (peptide)
peptide: GPHSSGNGNDFEMATKEELEQQTDY
In the case of B3, the Kd [11] is reported as 14.5 µM and the “stoichiometry N” value [11] is reported as 0.87 site.

B4: Atg40^237–252 (in the crystallised Atg40^237–252-Atg8 fusion) (domain or fragment, S. cerevisiae, UniProt Q99325 237-252, looked up)
chain: EFPNDYDFMEDILDET
B4: binds [12].

B5: Atg40-HA (natural protein, S. cerevisiae, UniProt Q99325 1-256, looked up)
chain: MFNLILWPLFLLTSVAIPLQLTLEVVYLTSSVDFSKASAAKTATSLGQSPVVITIYKSLLKYWSLYEFIHFIYLYTPIDAFLNFLPFTSLLMSFGSICLTRELVYDFIAFMESQNKLTGFLNKITEPNFNSYLLFSSIYNIWFADDTNDKFLFGKLTQILISVTKRYEFPRTFYLAKVSDFLQNLILTRLRPFVTEQPQGDKNRYQNGDRESTKNGAAYQKSSQQSSSFEQNFTSTEFPNDYDFMEDILDETTELD
notes: Atg40, ER-phagy receptor of S. cerevisiae; also called Atg40-FLAG; Atg40-GFP; source: S. cerevisiae cells treated with rapamycin, in lysate
In the case of B5, the “stoichiometry N” value [13] is reported as > 2.

B6: Atg40-6His (natural protein, S. cerevisiae, UniProt Q99325 1-256, looked up)
chain: B5 chain
notes: Atg40, S. cerevisiae; Atg40-6His is printed as 30.6 kDa; also called purified Atg40; source: S. cerevisiae BJ3505 (GPD promoter), purified from membranes in DDM (Ni-NTA, SEC)
In the case of B6, the “stoichiometry N” value [14] is reported as 2.

B7: RTN3245-253 (Δhelix) peptide (peptide)
peptide: YESPFEVIID
notes: numbers count on: isoform e; also called RTN3245-253 WT (Δhelix); source: synthetic peptide
In the case of B7, the Kd [1] is reported as 21.7 µM, the “stoichiometry N” value [1] is reported as 0.54 site and the Kd [2] is reported as 31.1 µM. The “stoichiometry N” value [2] was 0.91 site, the Kd [3] was 14 µM and the “stoichiometry N” value [3] was 0.82 site.

B8: SEC62361-368 (Δhelix) peptide (peptide)
peptide: NDFEMITKY
notes: SEC62, human, residues 361-368 (lacks the helix C-terminal to the AIM/LIR); Tyr attached to the C terminus for quantification by absorbance at 280 nm; also called Sec62361-368 WT (Δhelix); source: synthetic peptide (BEX Co., Ltd.), SEC
For B8, the Kd [6] was 54.6 µM, the “stoichiometry N” value [6] was 0.98 site and the Kd [7] was 31.9 µM. The Kd [8] was 13.3 µM, the “stoichiometry N” value [8] was 0.99 site and the Kd [9] was 90.9 µM.

B9: Atg40^234–252 peptide (peptide, UniProt Q99325 234-252, looked up)
peptide: TSTEFPNDYDFMEDILDET
notes: Atg40, S. cerevisiae, residues 234-252; also called wild-type peptide; source: synthetic peptide (Liberty Blue peptide synthesizer), SEC
B9 showed a Kd [15] of 0.59 µM.
